Test results reported in article PMC11543664.

Legend:
[1] = target: DosP^FLAG-R97A (full-length DosP with R97A and three copies of the FLAG motif on its C-terminus) (Escherichia coli); experiment: cryo-EM structure
[2] = target: DosP^WT (wild-type full-length DosP, tag-free after TEV cleavage) (Escherichia coli); experiment: cryo-EM structure

stoichiometry N [1] | stoichiometry N [2] | Substance
2 |  | DosP^FLAG-R97A (full-length DosP with R97A and three copies of the FLAG motif on its C-terminus) (enzyme)
 | 2 | DosP^WT (wild-type full-length DosP, tag-free after TEV cleavage) (enzyme)
